# In the supplement of paper PMC7877785:
# ± gives the uncertainty stated by the source.
# Test: self-splicing fitness, log relative to wild type (ln ratio); higher = more splicing; Tetrahymena group I intron in knt gene, E. coli kanamycin selection, DiMSum; sequences stand for … in CUCUCU…GGAGGGAAAAGUUAUCAGGCAUGCACCUGGUAGCUAGUCUUUAAACCAAUAGAUUGCAUCGGUUUAAAAGGCAAGACCGUCAAAUUGCGGGAAAGGGGUCAACAGCCGUUCAGUACCAAGUCUCAGGGGAAACUUUGAGAUGGCCUUGCAAAGGGUAUGGUAAUAAGCUGACGGACAUGGUCCUAACCACGCAGCCAAGUCCUAAGUCAACAGAUCUUCUGUUGAUAUGGAUGCAGUUCACAGACUAAAUGUCGGUCGGGGAAGAUGUAUUCUUCUCAUAAGAUAUAGUCGGACCUCUCCUUAAUGGGAGCUAGCGGAUGAAGUGAUGCAACACUGGAGCCGCUGGGAACUAAUUUGUAUGCGAAAGUAUAUUGAUUAGUUUUGGAGUACUCGUGGUCG
# Procedure, shortened: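 Six replicate transformations of E. coli BL21(DE3) with a pET-22b(+) library were grown overnight at 37°C or 30°C. The library randomised all eight P1ex-region intron nucleotides, the intron lying in the knt kanamycin-resistance gene, and plates were LB agar with or without 25 μg/mL kanamycin plus 100 μg/mL carbenicillin, 50 μM IPTG and 0.2% rhamnose. Pooled colonies were amplicon-sequenced on an Illumina HiSeq 2500, and fitness is the DiMSum error-weighted combination of wild-type-normalised replicate fold changes, kanamycin versus none.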
Sequence,self-splicing fitness (ln) (30 °C),self-splicing fitness (ln) (37 °C)
CUCGAGCAAUAUUACGAAAG,-2.85 ± 0.14,-1.58 ± 0.15
CAAGAGCAAUAUUACGCCGU,-1.59 ± 0.47,–
UGCGAGCAAUAUUACGGUUU,-3.14 ± 0.3,-2.62 ± 0.34
CCGGAGCAAUAUUACGAUCC,-2.16 ± 0.49,–
CAGUAGCAAUAUUACGACGU,-1.15 ± 0.14,-0.0577 ± 0.18
AUGUAGCAAUAUUACGAGCA,-1.07 ± 0.11,-1.07 ± 0.12
GGAUAGCAAUAUUACGGGCA,-2.6 ± 0.26,-0.844 ± 0.11
GAACAGCAAUAUUACGAGCU,-1.99 ± 0.091,-1.18 ± 0.09
AUCUAGCAAUAUUACGCAGU,-2.53 ± 0.18,-2.09 ± 0.2
GAGGAGCAAUAUUACGGUCG,-1.43 ± 0.14,-2.19 ± 0.29
AGACAGCAAUAUUACGGUCC,-3.24 ± 0.27,-1.68 ± 0.28
AGCCAGCAAUAUUACGUUAA,-2.44 ± 0.17,-2.59 ± 0.2
CAUCAGCAAUAUUACGAAAC,-3.66 ± 0.47,-3.45 ± 0.32
AUUCAGCAAUAUUACGUGAU,-0.92 ± 0.061,-0.187 ± 0.078
CCUGAGCAAUAUUACGUGAC,-3.82 ± 0.25,-2.17 ± 0.22
CGACAGCAAUAUUACGGAGC,-2.83 ± 0.19,-3.04 ± 0.25
AUGCAGCAAUAUUACGCCCC,-0.386 ± 0.27,-1.04 ± 0.27

Sequence,self-splicing fitness (ln) (30 °C),self-splicing fitness (ln) (37 °C)
UAUUAGCAAUAUUACGACUG,-0.225 ± 0.16,0.804 ± 0.21
GACUAGCAAUAUUACGCCGU,-2.15 ± 0.11,-0.995 ± 0.1
GAGCAGCAAUAUUACGUGUA,-2 ± 0.12,-0.876 ± 0.094
ACCAAGCAAUAUUACGCGAU,-2.1 ± 0.079,-1.17 ± 0.11
CGGGAGCAAUAUUACGGGAG,-2.76 ± 0.22,-2.44 ± 0.3
AACUAGCAAUAUUACGUUAU,-2.63 ± 0.11,-1.75 ± 0.12
CAUGAGCAAUAUUACGCGCG,-1.29 ± 0.15,0.0218 ± 0.14
GCCCAGCAAUAUUACGGUAA,-0.279 ± 0.06,0.44 ± 0.068
GACUAGCAAUAUUACGGUUG,-1.25 ± 0.072,-0.449 ± 0.092
AAAUAGCAAUAUUACGAAGU,-2.55 ± 0.18,-2.16 ± 0.2
UAUCAGCAAUAUUACGAUCG,-0.364 ± 0.095,0.612 ± 0.14
UCGGAGCAAUAUUACGCGAG,-3.29 ± 0.45,-1.64 ± 0.27
ACCAAGCAAUAUUACGUUCA,-1.65 ± 0.11,-1.18 ± 0.1
CCUAAGCAAUAUUACGACUG,-1.74 ± 0.15,-0.483 ± 0.14
GAUGAGCAAUAUUACGCGGC,–,-2.77 ± 0.38
CAUCAGCAAUAUUACGUGUU,-2.31 ± 0.12,-2.79 ± 0.24
GUAUAGCAAUAUUACGUUGC,-2.83 ± 0.26,–
